From PMC3890319, “Role of Receptor Activity Modifying Protein 1 in Function of the Calcium Sensing Receptor in the Human TT Thyroid Carcinoma Cell Line” (PLoS ONE, 2014)

T1: Calcium Sensing Receptor, C-terminal Citrine fusion (UniProt P41180 20-1078)
T1 construct: Calcium Sensing Receptor (CaSR); cDNA cloned without its stop codon between HindIII and Not1 of pcDNA3.1-Citrine; Acceptor of the FRET pair; it says only that the cDNA was cloned excluding the stop codon; also called CaSR; CaSR-citrine; source: COS-7, transfected by electroporation (pcDNA3.1), in fixed cells; not shown: Citrine, C-terminal, kept
T1 sequence (looked up): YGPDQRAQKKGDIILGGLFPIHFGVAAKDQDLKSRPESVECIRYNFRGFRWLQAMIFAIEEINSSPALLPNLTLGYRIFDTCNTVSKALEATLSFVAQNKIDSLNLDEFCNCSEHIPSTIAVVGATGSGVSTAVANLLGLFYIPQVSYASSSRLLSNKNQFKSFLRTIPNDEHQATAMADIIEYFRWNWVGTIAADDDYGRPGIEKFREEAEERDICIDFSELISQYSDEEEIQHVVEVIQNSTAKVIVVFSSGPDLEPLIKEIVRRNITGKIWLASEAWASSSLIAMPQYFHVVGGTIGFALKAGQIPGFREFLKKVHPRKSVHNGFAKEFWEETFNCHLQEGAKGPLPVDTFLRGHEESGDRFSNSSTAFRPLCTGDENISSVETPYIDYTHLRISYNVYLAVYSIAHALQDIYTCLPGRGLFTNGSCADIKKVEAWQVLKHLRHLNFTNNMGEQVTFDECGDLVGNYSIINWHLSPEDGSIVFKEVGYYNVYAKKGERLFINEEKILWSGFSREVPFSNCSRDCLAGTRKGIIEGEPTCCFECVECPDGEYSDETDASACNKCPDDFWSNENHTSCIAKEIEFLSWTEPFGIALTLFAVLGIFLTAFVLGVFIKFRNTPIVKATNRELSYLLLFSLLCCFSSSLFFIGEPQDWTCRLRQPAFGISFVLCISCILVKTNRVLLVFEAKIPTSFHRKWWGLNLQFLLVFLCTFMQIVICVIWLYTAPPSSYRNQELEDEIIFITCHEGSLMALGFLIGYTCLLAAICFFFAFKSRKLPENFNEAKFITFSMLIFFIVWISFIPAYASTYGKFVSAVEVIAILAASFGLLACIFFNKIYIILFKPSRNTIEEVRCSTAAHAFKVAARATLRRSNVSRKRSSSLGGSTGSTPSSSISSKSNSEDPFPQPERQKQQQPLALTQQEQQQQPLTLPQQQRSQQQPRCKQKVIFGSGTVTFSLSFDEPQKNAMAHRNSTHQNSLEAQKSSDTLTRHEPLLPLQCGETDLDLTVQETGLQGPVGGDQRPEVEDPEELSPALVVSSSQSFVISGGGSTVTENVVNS


Target: T1, Calcium Sensing Receptor, C-terminal …
Test: FRET or BRET; sensitized-emission FRET (NFRET, PixFRET) and FRET-based stoichiometry in cell-surface regions of interest (50-pixel dots) of fixed COS-7 cells co-transfected with CaSR-Citrine (acceptor) and RAMP-Cerulean (donor); confocal microscopy at room temperature; NFRET as percent of a Cerulean-linker-Citrine positive control; negative control Citrine alone + RAMP-Cerulean
Details: partners not purified

Row | Binder | stoichiometry N
1 | Receptor Activity Modifying Protein 1, C-terminal Cerulean fusion (natural protein, UniProt O60894 27-148, looked up, Receptor Activity Modifying Protein 1 (RAMP1); cDNA cloned without its stop codon between Kpn1 and Not1 of pcDNA3.1-Cerulean; Donor of the FRET pair; also called RAMP1; RAMP1-Cer; source: COS-7, transfected by electroporation (pcDNA3.1), in fixed cells; not shown: Cerulean, C-terminal, kept) CQEANYGALLRELCLTQFQVDMEAVGETLWCDWGRTIRSYRELADCTWHMAEKLGCFWPNAEVDRFFLAVHGRYFRSCPISGRAVRDPPGSILYPFIVVPITVTLLVTALVVWQSKRTEGIV | 2.19 CaSR:RAMP
2 | Receptor Activity Modifying Protein 3, C-terminal Cerulean fusion (natural protein, UniProt O60896 24-148, looked up, Receptor Activity Modifying Protein 3 (RAMP3); cDNA cloned without its stop codon between Kpn1 and Not1 of pcDNA3.1-Cerulean; Donor of the FRET pair; also called RAMP3; RAMP3-Cer; source: COS-7, transfected by electroporation (pcDNA3.1), in fixed cells; not shown: Cerulean, C-terminal, kept) RAGGCNETGMLERLPLCGKAFADMMGKVDVWKWCNLSEFIVYYESFTNCTEMEANVVGCYWPNPLAQGFITGIHRQFFSNCTVDRVHLEDPPDEVLIPLIVIPVVLTVAMAGLVVWRSKRTDTLL | 1.5 CaSR:RAMP
